The data set concerns the molecule itself. As to the kind of experiment: SEC. (In general: SEC sorts molecules by how far they enter the pores of the column.)

These results are taken from article doi:10.1101/2023.06.17.545066 (bioRxiv, 2023).

B1: EcL-TTD αβ heterodimer (complex)
chain 1: MMSESNKQQAVNKLTEIVANFTAMISTRMPDDVVDKLKQLKDAETSSMGKIIYHTMFDNMQKAIDLNRPACQDTGEIMFFVKVGSRFPLLGELQSILKQAVEEATVKAPLRHNAVEIFDEVNTGKNTGSGVPWVTWDIIPDNDDAEIEVYMAGGGCTLPGRSKVLMPSEGYEGVVKFVFENISTLAVNACPPVLVGVGIATSVETAAVLSRKAILRPIGSRHPNPKAAELELRLEEGLNRLGIGPQGLTGNSSVMGVHIESAARHPSTIGVAVSTGCWAHRRGTLLVHADLTFENLSHTRSAL
chain 2: MKKILTTPIKAEDLQDIRVGDVIYLTGTLVTCRDVCHRRLIELKRPIPYDLNGKAIFHAGPIVRKNGDKWEMVSVGPTTSMRMESFEREFIEQTGVKLVVGKGGMGPLTEEGCQKFKALHVIFPAGCAVLAATQVEEIEEVHWTELGMPESLWVCRVKEFGPLIVSIDTHGNNLIAENKKLFAERRDPIVEEICEHVHYIK
With B1, the “stoichiometry N” value amounted to 2.

By stoichiometry N is commonly meant a count of units in the complex or per binding partner.
